Measurements taken from the supplement of paper PMC9112550, “Optimization of the antimicrobial peptide Bac7 by deep mutational scanning” (BMC Biology, 2022).

Test system: Escherichia coli TOP10
Assay: shrunken log2 fold change of peptide-encoding DNA abundance (4.5 h post-induction vs induction); higher = less antimicrobial activity (less host growth inhibition)
Conditions: time post-induction: 4.5 h; library: site-saturation at positions 5, 18, 19, 20
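Also: peptides expressed intracellularly from a pBAD plasmid library in pooled LB shake-flask culture, induced with 0.3% L-arabinose, DNA abundance read by NGS, three biological replicates, DESeq2 with apeglm shrinkage.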

Row | Sequence | shrunken log2 fold change
1 | RRIRPRPPRLPRPRPRPHTHPRP | -0.434
2 | RRIRMRPPRLPRPRPRPTRMPRP | 0.685
3 | RRIRPRPPRLPRPRPRPLGAPRP | 0.426
4 | RRIRMRPPRLPRPRPRPTCLPRP | 0.413
5 | RRIRQRPPRLPRPRPRPQQQPRP | -0.0448
6 | RRIRMRPPRLPRPRPRPAKTPRP | 0.0368
7 | RRIRYRPPRLPRPRPRPECEPRP | -0.185
8 | RRIRRRPPRLPRPRPRPDKMPRP | -0.122
9 | RRIRSRPPRLPRPRPRPNVGPRP | -0.0139
10 | RRIRWRPPRLPRPRPRPSPDPRP | 0.236
11 | RRIRVRPPRLPRPRPRPDYWPRP | -0.449
12 | RRIRDRPPRLPRPRPRPTEVPRP | 0.121
13 | RRIRIRPPRLPRPRPRPVVKPRP | -0.151
14 | RRIRKRPPRLPRPRPRPVVSPRP | -0.292
15 | RRIRARPPRLPRPRPRPITWPRP | 0.0845
16 | RRIRWRPPRLPRPRPRPKNPPRP | 0.152
17 | RRIRPRPPRLPRPRPRPKESPRP | 0.13
18 | RRIRCRPPRLPRPRPRPKRNPRP | 0.34
19 | RRIRERPPRLPRPRPRPSDWPRP | 0.0574
20 | RRIRWRPPRLPRPRPRPNEKPRP | 0.0011

Row | Sequence | shrunken log2 fold change
21 | RRIRYRPPRLPRPRPRPLVRPRP | -0.0244
22 | RRIRSRPPRLPRPRPRPHNAPRP | -0.197
23 | RRIRERPPRLPRPRPRPNVHPRP | -0.344
24 | RRIRQRPPRLPRPRPRPFFPPRP | -0.0441
25 | RRIRPRPPRLPRPRPRPEMLPRP | 0.16
26 | RRIRRRPPRLPRPRPRPFCFPRP | 0.218
27 | RRIRERPPRLPRPRPRPIYWPRP | -0.0719
28 | RRIRPRPPRLPRPRPRPFAVPRP | -0.113
29 | RRIRSRPPRLPRPRPRPYCQPRP | -0.164
30 | RRIRERPPRLPRPRPRPNSMPRP | -0.864
31 | RRIRMRPPRLPRPRPRPWFEPRP | -0.13
32 | RRIRVRPPRLPRPRPRPWRGPRP | 0.378
33 | RRIRERPPRLPRPRPRPAQAPRP | 0.073
34 | RRIRTRPPRLPRPRPRPWSSPRP | -0.241
35 | RRIRFRPPRLPRPRPRPPHGPRP | 0.364
36 | RRIRARPPRLPRPRPRPTPSPRP | 0.791
37 | RRIRWRPPRLPRPRPRPAKLPRP | 0.0566
38 | RRIRPRPPRLPRPRPRPFADPRP | 0.174
39 | RRIRCRPPRLPRPRPRPAFKPRP | 0.132
40 | RRIRVRPPRLPRPRPRPLLTPRP | -0.0362

Row | Sequence | shrunken log2 fold change
41 | RRIRARPPRLPRPRPRPGGPPRP | 0.294
42 | RRIRERPPRLPRPRPRPADGPRP | -0.0752
43 | RRIRVRPPRLPRPRPRPHTVPRP | -0.448
44 | RRIRKRPPRLPRPRPRPIQSPRP | -0.0332
45 | RRIRGRPPRLPRPRPRPHCWPRP | 0.69
46 | RRIRRRPPRLPRPRPRPCVDPRP | 0.163
47 | RRIRERPPRLPRPRPRPLKAPRP | 0.225
48 | RRIRVRPPRLPRPRPRPIEVPRP | -0.141
49 | RRIRSRPPRLPRPRPRPYQRPRP | -0.103
50 | RRIRLRPPRLPRPRPRPCTAPRP | -0.139
51 | RRIRERPPRLPRPRPRPSGDPRP | -0.253
52 | RRIRERPPRLPRPRPRPQLIPRP | -0.759
53 | RRIRYRPPRLPRPRPRPSWIPRP | -0.341
54 | RRIRIRPPRLPRPRPRPLKIPRP | 1.44
55 | RRIRYRPPRLPRPRPRPDSMPRP | 0.00804
56 | RRIRHRPPRLPRPRPRPNKHPRP | -0.627
57 | RRIRGRPPRLPRPRPRPHHPPRP | 1.21
58 | RRIRIRPPRLPRPRPRPYKFPRP | -0.616
59 | RRIRCRPPRLPRPRPRPKPPPRP | 0.931
60 | RRIRMRPPRLPRPRPRPVWNPRP | -0.0831
